Measured values taken from article PMC2901993 (Biochemical and biophysical research communications, 2010).

Tests used:
translin (TB-RBP) = translin (TB-RBP) (Mus musculus, UniProt Q62348 1-228); assay: fluorescence polarization
[1] = target: translin (in translin-trax complex);trax (translin-associated factor X) (Mus musculus;Mus musculus, UniProt Q62348;Q9QZE7 1-228;1-290, |); assay: fluorescence polarization
Sequence of translin (in translin-trax complex);trax (translin-associated factor X) (Q62348 whole entry, chain 1 of 2): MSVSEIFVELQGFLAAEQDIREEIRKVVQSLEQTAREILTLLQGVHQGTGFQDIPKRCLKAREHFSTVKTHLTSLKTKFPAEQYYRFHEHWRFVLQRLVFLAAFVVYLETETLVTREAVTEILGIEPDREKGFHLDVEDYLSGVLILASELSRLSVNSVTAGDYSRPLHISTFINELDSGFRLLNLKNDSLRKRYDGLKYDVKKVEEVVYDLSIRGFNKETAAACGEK
Sequence of translin (in translin-trax complex);trax (translin-associated factor X) (Q9QZE7 whole entry, chain 2 of 2): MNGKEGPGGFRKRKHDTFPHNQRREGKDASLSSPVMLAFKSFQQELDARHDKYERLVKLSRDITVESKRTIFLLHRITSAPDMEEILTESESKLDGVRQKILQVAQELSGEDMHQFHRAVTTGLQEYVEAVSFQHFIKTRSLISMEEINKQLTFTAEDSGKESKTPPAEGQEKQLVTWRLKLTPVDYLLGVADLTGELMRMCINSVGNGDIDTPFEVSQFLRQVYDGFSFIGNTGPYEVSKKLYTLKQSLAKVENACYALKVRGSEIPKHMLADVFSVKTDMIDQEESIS

Sequence of translin (TB-RBP) (Q62348 whole entry): as the sequence (Q62348 whole entry, chain 1 of 2) above

Row | Binder | Kd (translin (TB-RBP)) | Kd [1]
1 | UCUGAGCCCUGAGCUGCCAAGGAGCCACGAGAUCUGAGU (ssRNA) [PRM-2] | 200 nM | 40000 nM
2 | UCUGAGCCCUCACCUGCCAAGGAGCCACCACAUCUGAGU (ssRNA) [PRM-2 Variant 3] | 300 nM | –
3 | UCUGAGCCCUCACCUGCCAAGGAGCCACGAGAUCUGAGU (ssRNA) [PRM-2 Variant 1] | 1000 nM | –
4 | UCUGAGCCCUGAGCUGCCAAGGAGCCACCACAUCUGAGU (ssRNA) [PRM-2 Variant 2] | 200 nM | –
5 | TCTGAGCCCTGAGCTGCCAAGGAGCCACGAGATCTGAGT (ssDNA) [dPRM-2] | 10000 nM | 4000 nM
6 | UCUGAGCCCUGAGCUGCCAAGGAGCCACGA (ssRNA) [PRM-2(1-30)] | 200 nM | –
7 | AGAGGAGGAGGAGGAGGAGGAGGAG (ssRNA) [rGAG] | 500 nM | –
